Test results published in US20030044911A1.

What was measured:
Test in all cases: cell-based or functional assay
[1] = target: N-type calcium channel formed by human brain α1B subunit together with rabbit β3 subunit, expressed in Xenopus oocytes (human; rabbit) (UniProt Q00975)
[2] = target: rabbit cardiac α1C subunit, modified cDNA ΔN60 truncated by 60 amino acids at the N-terminal end, expressed in Xenopus oocytes (rabbit) (UniProt P15381)
[3] = target: rat brain α1G subunit expressed from cRNA in Xenopus oocytes (rat) (UniProt O54898)

Sequence of UniProt Q00975 (Q00975 whole entry, chain 1 of 2, the tested form may be a part): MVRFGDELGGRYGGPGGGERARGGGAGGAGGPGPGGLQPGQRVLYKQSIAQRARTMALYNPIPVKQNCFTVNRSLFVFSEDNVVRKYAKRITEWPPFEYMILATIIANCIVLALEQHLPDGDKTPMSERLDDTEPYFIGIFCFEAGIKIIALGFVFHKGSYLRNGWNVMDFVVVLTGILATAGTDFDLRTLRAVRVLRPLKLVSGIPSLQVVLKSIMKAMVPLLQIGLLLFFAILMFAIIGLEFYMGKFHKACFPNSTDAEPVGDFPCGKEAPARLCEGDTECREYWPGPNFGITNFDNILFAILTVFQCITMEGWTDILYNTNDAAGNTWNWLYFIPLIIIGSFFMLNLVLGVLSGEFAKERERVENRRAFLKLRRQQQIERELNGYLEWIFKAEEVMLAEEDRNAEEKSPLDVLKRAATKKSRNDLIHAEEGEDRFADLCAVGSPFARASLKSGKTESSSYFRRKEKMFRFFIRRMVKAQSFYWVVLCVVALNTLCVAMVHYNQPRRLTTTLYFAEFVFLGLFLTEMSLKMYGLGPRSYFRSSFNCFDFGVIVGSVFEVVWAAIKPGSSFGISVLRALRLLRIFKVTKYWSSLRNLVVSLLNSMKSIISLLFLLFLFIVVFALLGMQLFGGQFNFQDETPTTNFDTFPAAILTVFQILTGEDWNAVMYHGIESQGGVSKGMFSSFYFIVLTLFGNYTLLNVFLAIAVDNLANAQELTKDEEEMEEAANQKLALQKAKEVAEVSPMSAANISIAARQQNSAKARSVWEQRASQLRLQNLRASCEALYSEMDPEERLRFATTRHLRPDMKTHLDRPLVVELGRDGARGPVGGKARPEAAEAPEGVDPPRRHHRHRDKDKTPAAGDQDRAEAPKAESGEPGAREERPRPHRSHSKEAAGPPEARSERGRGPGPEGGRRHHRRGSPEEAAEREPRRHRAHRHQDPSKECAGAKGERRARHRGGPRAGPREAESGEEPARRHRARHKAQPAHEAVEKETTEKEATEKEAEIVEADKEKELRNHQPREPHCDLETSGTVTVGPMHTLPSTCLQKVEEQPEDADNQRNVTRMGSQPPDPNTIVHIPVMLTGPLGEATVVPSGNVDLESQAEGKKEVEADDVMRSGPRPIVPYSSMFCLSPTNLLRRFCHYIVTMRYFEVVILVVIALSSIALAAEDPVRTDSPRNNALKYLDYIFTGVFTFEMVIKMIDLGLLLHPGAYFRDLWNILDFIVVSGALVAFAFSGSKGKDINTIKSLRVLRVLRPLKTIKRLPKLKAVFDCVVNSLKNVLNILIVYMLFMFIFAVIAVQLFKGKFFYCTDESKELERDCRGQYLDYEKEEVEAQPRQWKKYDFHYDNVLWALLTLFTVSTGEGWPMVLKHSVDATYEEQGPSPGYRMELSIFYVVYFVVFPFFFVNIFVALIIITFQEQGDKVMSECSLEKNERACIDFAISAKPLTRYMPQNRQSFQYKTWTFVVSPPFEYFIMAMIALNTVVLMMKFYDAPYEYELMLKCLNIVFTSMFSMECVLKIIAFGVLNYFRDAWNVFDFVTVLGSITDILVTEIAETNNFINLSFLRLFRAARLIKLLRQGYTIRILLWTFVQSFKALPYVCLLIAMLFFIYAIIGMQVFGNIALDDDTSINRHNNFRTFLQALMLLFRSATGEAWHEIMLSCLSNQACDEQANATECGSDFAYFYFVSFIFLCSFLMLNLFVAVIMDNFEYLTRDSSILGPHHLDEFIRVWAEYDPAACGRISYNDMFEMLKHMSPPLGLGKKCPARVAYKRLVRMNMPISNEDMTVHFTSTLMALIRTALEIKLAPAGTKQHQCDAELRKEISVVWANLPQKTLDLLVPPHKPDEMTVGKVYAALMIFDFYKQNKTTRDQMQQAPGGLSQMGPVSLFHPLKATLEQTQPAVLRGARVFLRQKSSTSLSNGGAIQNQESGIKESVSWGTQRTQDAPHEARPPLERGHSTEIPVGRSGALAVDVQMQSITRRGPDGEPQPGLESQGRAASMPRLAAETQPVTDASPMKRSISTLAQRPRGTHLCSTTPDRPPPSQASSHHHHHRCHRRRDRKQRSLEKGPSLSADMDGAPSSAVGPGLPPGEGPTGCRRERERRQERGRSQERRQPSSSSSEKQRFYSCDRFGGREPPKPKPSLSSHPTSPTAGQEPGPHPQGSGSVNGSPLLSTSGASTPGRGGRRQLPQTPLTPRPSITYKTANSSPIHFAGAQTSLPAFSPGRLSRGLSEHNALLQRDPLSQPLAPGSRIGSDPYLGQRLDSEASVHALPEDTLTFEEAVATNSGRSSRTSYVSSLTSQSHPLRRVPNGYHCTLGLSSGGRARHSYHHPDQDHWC
Sequence of UniProt Q00975 (P54286 whole entry, chain 2 of 2, further chain, the tested form may be a part): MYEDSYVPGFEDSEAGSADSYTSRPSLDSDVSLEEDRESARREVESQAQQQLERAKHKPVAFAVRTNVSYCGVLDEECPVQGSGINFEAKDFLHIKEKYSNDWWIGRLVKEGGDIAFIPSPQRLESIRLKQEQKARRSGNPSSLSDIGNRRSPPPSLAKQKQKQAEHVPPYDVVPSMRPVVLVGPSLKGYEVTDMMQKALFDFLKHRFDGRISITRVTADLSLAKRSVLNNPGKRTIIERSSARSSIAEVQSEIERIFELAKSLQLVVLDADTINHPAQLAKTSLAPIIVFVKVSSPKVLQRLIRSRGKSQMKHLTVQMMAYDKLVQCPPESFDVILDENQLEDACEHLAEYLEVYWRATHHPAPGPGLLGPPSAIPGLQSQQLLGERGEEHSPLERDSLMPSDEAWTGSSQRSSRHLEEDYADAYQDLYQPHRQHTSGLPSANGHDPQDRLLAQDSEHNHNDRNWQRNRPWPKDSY
Sequence of UniProt P15381 (P15381 61-2171 limits assumed, stated change not applied): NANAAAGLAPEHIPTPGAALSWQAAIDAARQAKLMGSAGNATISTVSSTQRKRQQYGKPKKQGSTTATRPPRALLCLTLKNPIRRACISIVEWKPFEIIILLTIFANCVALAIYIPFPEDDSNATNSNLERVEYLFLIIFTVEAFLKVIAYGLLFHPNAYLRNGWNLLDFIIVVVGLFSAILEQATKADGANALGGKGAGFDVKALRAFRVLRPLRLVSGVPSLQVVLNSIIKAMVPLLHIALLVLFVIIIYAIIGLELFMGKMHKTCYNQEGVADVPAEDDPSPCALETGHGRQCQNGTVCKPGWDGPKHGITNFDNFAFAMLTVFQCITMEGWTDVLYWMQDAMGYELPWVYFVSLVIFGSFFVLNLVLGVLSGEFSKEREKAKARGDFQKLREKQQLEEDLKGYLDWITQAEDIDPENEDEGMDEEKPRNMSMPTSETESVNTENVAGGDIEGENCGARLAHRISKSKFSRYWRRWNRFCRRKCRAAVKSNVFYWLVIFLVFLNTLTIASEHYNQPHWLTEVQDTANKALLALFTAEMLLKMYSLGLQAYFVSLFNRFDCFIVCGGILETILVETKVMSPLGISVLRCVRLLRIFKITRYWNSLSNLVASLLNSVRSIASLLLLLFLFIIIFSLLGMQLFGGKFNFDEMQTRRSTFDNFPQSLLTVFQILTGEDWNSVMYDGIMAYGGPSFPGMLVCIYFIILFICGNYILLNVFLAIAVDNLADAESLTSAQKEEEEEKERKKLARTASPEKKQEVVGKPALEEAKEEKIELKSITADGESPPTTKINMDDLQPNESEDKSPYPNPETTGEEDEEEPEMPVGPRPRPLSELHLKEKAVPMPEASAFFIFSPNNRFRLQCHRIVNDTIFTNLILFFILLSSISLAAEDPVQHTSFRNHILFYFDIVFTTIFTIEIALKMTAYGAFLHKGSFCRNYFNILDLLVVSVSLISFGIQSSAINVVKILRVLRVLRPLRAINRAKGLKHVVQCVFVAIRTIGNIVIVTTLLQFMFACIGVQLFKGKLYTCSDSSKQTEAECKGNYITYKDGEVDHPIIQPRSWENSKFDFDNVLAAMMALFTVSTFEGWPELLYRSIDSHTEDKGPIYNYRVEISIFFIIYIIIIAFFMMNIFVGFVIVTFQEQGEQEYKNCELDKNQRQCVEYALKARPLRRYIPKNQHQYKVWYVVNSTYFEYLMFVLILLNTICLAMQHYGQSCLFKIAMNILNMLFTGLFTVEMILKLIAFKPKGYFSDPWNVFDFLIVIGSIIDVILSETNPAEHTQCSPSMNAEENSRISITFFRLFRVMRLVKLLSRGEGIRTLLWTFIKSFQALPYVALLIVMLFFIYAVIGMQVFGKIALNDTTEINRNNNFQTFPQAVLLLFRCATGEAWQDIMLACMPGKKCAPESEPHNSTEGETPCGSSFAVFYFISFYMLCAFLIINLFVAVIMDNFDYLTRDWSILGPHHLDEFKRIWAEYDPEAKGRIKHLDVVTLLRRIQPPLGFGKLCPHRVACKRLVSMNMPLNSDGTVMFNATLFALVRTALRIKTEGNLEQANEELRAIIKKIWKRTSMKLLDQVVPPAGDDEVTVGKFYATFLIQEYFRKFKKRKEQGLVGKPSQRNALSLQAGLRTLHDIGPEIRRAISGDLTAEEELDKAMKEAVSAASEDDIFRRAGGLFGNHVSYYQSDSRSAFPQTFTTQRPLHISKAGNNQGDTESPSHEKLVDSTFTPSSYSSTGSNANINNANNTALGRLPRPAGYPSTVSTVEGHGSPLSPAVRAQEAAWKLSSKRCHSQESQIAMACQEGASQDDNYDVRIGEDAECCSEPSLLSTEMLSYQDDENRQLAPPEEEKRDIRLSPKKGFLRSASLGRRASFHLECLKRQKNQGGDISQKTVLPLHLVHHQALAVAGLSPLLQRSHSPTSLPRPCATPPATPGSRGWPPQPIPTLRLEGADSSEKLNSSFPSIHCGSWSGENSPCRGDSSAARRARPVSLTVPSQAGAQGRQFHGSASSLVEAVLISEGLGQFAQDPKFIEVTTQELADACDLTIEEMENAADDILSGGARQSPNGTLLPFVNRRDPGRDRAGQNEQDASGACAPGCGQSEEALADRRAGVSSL

current remaining at the end of a 50 ms test pulse to +20 mV, percent of peak current (inactivation) (% of peak current) [1] | fold increase of N-type current magnitude [1] | peak barium current (N-type), two-electrode voltage clamp in Xenopus oocytes [1] | L-type peak current amplitude at +30 mV, α1C/α2δ-2 against α1C alone, Xenopus oocytes [2] | T-type current amplitude, α1G/α2δ-2 against α1G alone, Xenopus oocytes [3] | Substance
33 | 9 fold | 9.1 µA |  |  | rabbit skeletal muscle α2δ-1 subunit expressed from cRNA in Xenopus oocytes (from UniProt P13806 27-1106)
59 |  | 7.6 µA | 201% | 176% | α2δ-2 subunit expressed from cRNA in Xenopus oocytes (from UniProt Q9NY47 19-1150)
